The assay concerns the target human PD-L1 expressed on mammalian cells (human) (UniProt Q9NZQ7). Briefly: FACS on PDL1-Raji cells by the text; sheet title 'Cell-Based Binding Raji-PDL1 cells', y axis labelled IL2 (ng/ml); EC50 table under the plot, unit taken from the axis Concentration (nM).

Chain of human PD-L1 expressed on mammalian cells (human) (Q9NZQ7 19-290): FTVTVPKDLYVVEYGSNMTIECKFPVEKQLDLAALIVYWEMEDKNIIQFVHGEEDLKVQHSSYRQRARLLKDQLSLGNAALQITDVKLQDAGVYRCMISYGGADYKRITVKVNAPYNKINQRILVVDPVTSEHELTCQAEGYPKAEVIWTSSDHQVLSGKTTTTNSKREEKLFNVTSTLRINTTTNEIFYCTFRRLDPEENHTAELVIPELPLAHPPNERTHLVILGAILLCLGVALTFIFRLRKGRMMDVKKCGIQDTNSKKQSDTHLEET

In turn, Tecentriq (atezolizumab) (antibody) yielded an EC50 of 0.89 nM.

Usually EC50 stands for the midpoint of the concentration-response curve.
